From patent US20250076311A1 (Chugai, published 2025)

Legend:
[1] = biological target: T1, human FcγRIIb extracellular domain with C-terminal His-tag (human, UniProt P31994 43-217); assay: SPR Biacore, antibody captured, FcgR analyte
T1 construct: also called human FcgRIIb; not shown: His-tag added to C-terminus
T1 sequence: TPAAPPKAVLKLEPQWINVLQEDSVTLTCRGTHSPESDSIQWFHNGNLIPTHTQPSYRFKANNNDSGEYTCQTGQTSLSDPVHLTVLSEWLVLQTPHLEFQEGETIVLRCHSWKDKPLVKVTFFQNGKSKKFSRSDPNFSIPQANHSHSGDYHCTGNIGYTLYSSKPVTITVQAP

[2] = biological target: T2, cynomolgus monkey FcγRIIIaS extracellular domain with C-terminal His-tag (cynomolgus monkey, UniProt A3RFZ7 21-206 (rhesus entry)); assay: SPR Biacore, antibody captured, FcgR analyte
T2 construct: also called cyno FcgRIIIaS; cynoFcγRIIIaS; not shown: His-tag added to C-terminus

[3] = biological target: T3, cynomolgus monkey FcγRIIa2 extracellular domain with C-terminal His-tag (cynomolgus monkey); assay: SPR Biacore, antibody captured, FcgR analyte
T3 construct: also called cyno FcgRIIa2; cynoFcγRIIa2; not shown: His-tag added to C-terminus
T3 chain: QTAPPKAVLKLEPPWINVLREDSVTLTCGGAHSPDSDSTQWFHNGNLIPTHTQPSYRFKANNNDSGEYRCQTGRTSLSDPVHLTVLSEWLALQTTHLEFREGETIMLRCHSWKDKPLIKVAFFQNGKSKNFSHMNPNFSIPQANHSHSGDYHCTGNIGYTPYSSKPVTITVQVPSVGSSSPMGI

[4] = biological target: T4, cynomolgus monkey FcγRIIb extracellular domain with C-terminal His-tag (cynomolgus monkey); assay: SPR Biacore, antibody captured, FcgR analyte
T4 construct: also called cyno FcgRIIb; cynoFcγRIIb; not shown: His-tag added to C-terminus
T4 chain: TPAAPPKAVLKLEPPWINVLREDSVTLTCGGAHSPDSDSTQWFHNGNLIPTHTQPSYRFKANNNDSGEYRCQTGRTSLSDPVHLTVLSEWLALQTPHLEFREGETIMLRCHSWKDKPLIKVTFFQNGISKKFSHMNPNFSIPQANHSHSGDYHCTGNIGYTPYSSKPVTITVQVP

[5] = biological target: T5, cynomolgus monkey FcγRIIIaS extracellular domain, His-tagged (cynomolgus monkey, UniProt Q8SPW2 21-206 at identity 1.00)); assay: SPR (BIACORE), antibody captured, FcγR analyte, 25 C; KD of SG1 divided by KD of variant
T5 construct: also called cyno FcγRIIIaS; cynoFcgRIIIaS
T5 chain: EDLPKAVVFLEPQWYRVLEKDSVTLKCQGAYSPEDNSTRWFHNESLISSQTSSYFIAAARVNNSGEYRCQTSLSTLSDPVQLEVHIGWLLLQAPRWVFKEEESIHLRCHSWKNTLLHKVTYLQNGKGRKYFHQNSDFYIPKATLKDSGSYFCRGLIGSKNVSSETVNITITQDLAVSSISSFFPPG
Description: The kinetic analysis of interactions between these antibodies and FcγR was carried out using BIACORE® T200 or BIACORE® 4000 (GE Healthcare). HBS-EP+ (GE Healthcare) was used as the running buffer, and the measurement temperature was set to 25° C. […] After the measurement, the antibody captured on the chip was washed off by allowing reaction with 10 mM glycine-HCl, pH1.5 and 25 mM NaOH so that the chip was regenerated and used repeatedly. The sensorgrams obtained as measurement results were analyzed by the 1:1 Langmuir binding model using the BIACORE® Evaluation Software to calculate the binding rate constant ka (L/mol/s) and dissociation rate constant kd (1/s), and the dissociation constant KD (mol/L) was calculated from these values. […] Regarding such interactions, KD values were calculated using the following 1:1 binding model described in BIACORE® T100 Software Handbook BR1006-48 Edition AE.

[6] = biological target: T6, cynomolgus monkey FcγRIIa3 extracellular domain with C-terminal His-tag (cynomolgus monkey); assay: SPR Biacore, antibody captured, FcgR analyte
T6 construct: also called cyno FcgRIIa3; cynoFcγRIIa3; not shown: His-tag added to C-terminus
T6 chain: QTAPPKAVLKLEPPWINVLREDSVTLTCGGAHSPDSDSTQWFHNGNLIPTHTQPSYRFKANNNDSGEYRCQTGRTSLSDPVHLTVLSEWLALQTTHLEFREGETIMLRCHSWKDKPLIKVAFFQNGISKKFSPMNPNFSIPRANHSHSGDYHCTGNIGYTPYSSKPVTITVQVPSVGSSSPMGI

B1: M103205H795-MY184/M103202L889-SK1 (antibody, human IgG1, kappa, name in EU numbering)
heavy: QVTLKESGPVLVKPTETLTLTCTVSGIDLSHDDISWVRQAPGKGLEWVGIISYAGSTYYASWAKGRLTISKDTSKNQVVLTMTNMDPVDTATYYCARGVPAYSHGGDLWGQGTLVTVSSASTKGPSVFPLAPSSKSTSGGTAALGCLVKDYFPEPVTVSWNSGALTSGVHTFPAVLQSSGLYSLSSVVTVPSSSLGTQTYICNVNHKPSNTKVDKKVEPKSCDKTHTCPPCPAPELLNGPSVFLFPPKPKDTLMISRTPEVTCVVVDVSEEDPEVKFNWYVDGVEVHNAKTKPREEQYNSTYRVVSVLTVLHQDWLNGKEYKCKVSNKALPAPIEKTISKAKGQPREPQVYTLPPSREEMTKNQVSLTCLVKGFYPSDIAVEWESNGQPENNYKTTPYVLDSDGSFFLYSKLTVDKSRWQQGNVFSCSVMHEALHNHYTQKSLSLSP
light: DIVMTQSPATLSLSPGERATLSCTSSQSVYHANWLSWFQQKPGQPPKLLIYWASTLAYGVPSRFSGSGSGTDFTLTISSLQPEDAATYYCAGGYGGGRYAFGQGTKVEIKRTVAAPSVFIFPPSDEQLKSGTASVVCLLNNFYPREAKVQWKVDNALQSGNSQESVTEQDSKDSTYSLSSTLTLSKADYEKHKVYACEVTHQGLSSPVTKSFNRGEC
notes: EU numbering
In the case of B1, the “KD fold (SG1 = 1)” value [1] is reported as 4.7 fold, the “KD fold (SG1 = 1)” value [2] is reported as 0.11 fold and the Kd [2] is reported as 3300 nM. For the same binder, the “KD fold (SG1 = 1)” value [3] was 2.8 fold and the Kd [4] was 900 nM.

B2: M103205H795-MY208/M103202L889-SK1 (antibody, human IgG1, kappa, name in EU numbering)
heavy: QVTLKESGPVLVKPTETLTLTCTVSGIDLSHDDISWVRQAPGKGLEWVGIISYAGSTYYASWAKGRLTISKDTSKNQVVLTMTNMDPVDTATYYCARGVPAYSHGGDLWGQGTLVTVSSASTKGPSVFPLAPSSKSTSGGTAALGCLVKDYFPEPVTVSWNSGALTSGVHTFPAVLQSSGLYSLSSVVTVPSSSLGTQTYICNVNHKPSNTKVDKKVEPKSCDKTHTCPPCPAPELLNGPSVFLFPPKPKDTLMISRTPEVTCVVVDVSDEDPEVKFNWYVDGVEVHNAKTKPREELYNSTYRVVSVLTVLHQDWLNGKEYKCKVSNKALPAPIEKTISKAKGQPREPQVYTLPPSREEMTKNQVSLTCLVKGFYPSDIAVEWESNGQPENNYKTTPPVLDSDGSFFLYSKLTVDKSRWQQGNVFSCSVMHEALHNHYTQKSLSLSP
light: DIVMTQSPATLSLSPGERATLSCTSSQSVYHANWLSWFQQKPGQPPKLLIYWASTLAYGVPSRFSGSGSGTDFTLTISSLQPEDAATYYCAGGYGGGRYAFGQGTKVEIKRTVAAPSVFIFPPSDEQLKSGTASVVCLLNNFYPREAKVQWKVDNALQSGNSQESVTEQDSKDSTYSLSSTLTLSKADYEKHKVYACEVTHQGLSSPVTKSFNRGEC
notes: substitutions in EU numbering, introduced into M103205H795-SG1
In the case of B2, the “KD fold (SG1 = 1)” value [2] is reported as 0.13 fold and the “KD fold (SG1 = 1)” value [3] is reported as 3.4 fold.

B3: M103205H795-MY447/M103202L889-SK1 (antibody, human IgG1, kappa, name in EU numbering)
heavy: QVTLKESGPVLVKPTETLTLTCTVSGIDLSHDDISWVRQAPGKGLEWVGIISYAGSTYYASWAKGRLTISKDTSKNQVVLTMTNMDPVDTATYYCARGVPAYSHGGDLWGQGTLVTVSSASTKGPSVFPLAPSSKSTSGGTAALGCLVKDYFPEPVTVSWNSGALTSGVHTFPAVLQSSGLYSLSSVVTVPSSSLGTQTYICNVNHKPSNTKVDKKVEPKSCDKTHTCPPCPAIELLTGPSVFLFPPKPKDTLMISRTPEVTCVVVDVSDEDPEVKFNWYVDGVEVHNAKTKPREEQYNSTYRVVSVLTVLHQDWLNGKEYKCKVSNKALPKPIEKTISKAKGQPREPQVYTLPPSREEMTKNQVSLTCLVKGFYPSDIAVEWESNGQPENNYKTTPPVLDSDGSFFLYSKLTVDKSRWQQGNVFSCSVMHEALHNHYTQKSLSLSP
light: DIVMTQSPATLSLSPGERATLSCTSSQSVYHANWLSWFQQKPGQPPKLLIYWASTLAYGVPSRFSGSGSGTDFTLTISSLQPEDAATYYCAGGYGGGRYAFGQGTKVEIKRTVAAPSVFIFPPSDEQLKSGTASVVCLLNNFYPREAKVQWKVDNALQSGNSQESVTEQDSKDSTYSLSSTLTLSKADYEKHKVYACEVTHQGLSSPVTKSFNRGEC
With B3 the “KD fold (SG1 = 1)” value [5] was 0.3 fold.

B4: M103205H795-MY451/M103202L889-SK1 (antibody, human IgG1, kappa, name in EU numbering)
heavy: QVTLKESGPVLVKPTETLTLTCTVSGIDLSHDDISWVRQAPGKGLEWVGIISYAGSTYYASWAKGRLTISKDTSKNQVVLTMTNMDPVDTATYYCARGVPAYSHGGDLWGQGTLVTVSSASTKGPSVFPLAPSSKSTSGGTAALGCLVKDYFPEPVTVSWNSGALTSGVHTFPAVLQSSGLYSLSSVVTVPSSSLGTQTYICNVNHKPSNTKVDKKVEPKSCDKTHTCPPCPANELLTGPSVFLFPPKPKDTLMISRTPEVTCVVVDVSDEDPEVKFNWYVDGVEVHNAKTKPREEQYNSTYRVVSVLTVLHQDWLNGKEYKCKVSNKALPKPIEKTISKAKGQPREPQVYTLPPSREEMTKNQVSLTCLVKGFYPSDIAVEWESNGQPENNYKTTPPVLDSDGSFFLYSKLTVDKSRWQQGNVFSCSVMHEALHNHYTQKSLSLSP
light: DIVMTQSPATLSLSPGERATLSCTSSQSVYHANWLSWFQQKPGQPPKLLIYWASTLAYGVPSRFSGSGSGTDFTLTISSLQPEDAATYYCAGGYGGGRYAFGQGTKVEIKRTVAAPSVFIFPPSDEQLKSGTASVVCLLNNFYPREAKVQWKVDNALQSGNSQESVTEQDSKDSTYSLSSTLTLSKADYEKHKVYACEVTHQGLSSPVTKSFNRGEC
With B4 the “KD fold (SG1 = 1)” value [5] was 0.2 fold.

B5: M103205H795-MY211/M103202L889-SK1 (antibody, human IgG1, kappa, name in EU numbering)
heavy: QVTLKESGPVLVKPTETLTLTCTVSGIDLSHDDISWVRQAPGKGLEWVGIISYAGSTYYASWAKGRLTISKDTSKNQVVLTMTNMDPVDTATYYCARGVPAYSHGGDLWGQGTLVTVSSASTKGPSVFPLAPSSKSTSGGTAALGCLVKDYFPEPVTVSWNSGALTSGVHTFPAVLQSSGLYSLSSVVTVPSSSLGTQTYICNVNHKPSNTKVDKKVEPKSCDKTHTCPPCPAPELLNGPVVFLFPPKPKDTLMISRTPEVTCVVVDVSDEDPEVKFNWYVDGVEVHNAKTKPREEQYNSTYRVVSVLTVLHQDWLNGKEYKCKVSNTALPKPIEKTISKAKGQPREPQVYTLPPSREEMTKNQVSLTCLVKGFYPSDIAVEWESNGQPENNYKTTPPVLDSDGSFFLYSKLTVDKSRWQQGNVFSCSVMHEALHNHYTQKSLSLSP
light: DIVMTQSPATLSLSPGERATLSCTSSQSVYHANWLSWFQQKPGQPPKLLIYWASTLAYGVPSRFSGSGSGTDFTLTISSLQPEDAATYYCAGGYGGGRYAFGQGTKVEIKRTVAAPSVFIFPPSDEQLKSGTASVVCLLNNFYPREAKVQWKVDNALQSGNSQESVTEQDSKDSTYSLSSTLTLSKADYEKHKVYACEVTHQGLSSPVTKSFNRGEC
notes: as for B2
With B5 the “KD fold (SG1 = 1)” value [6] was 6.5 fold, the “KD fold (SG1 = 1)” value [2] was 0.17 fold and the “KD fold (SG1 = 1)” value [3] was 8.8 fold.
